± gives the standard deviation of the averaged measurements.
Test system: ATP
Test: switch fluorescence ratio, 500 uM ATP over buffer (Cy3 cluster intensity, sum of 5 cycles each) (fold (ratio)); higher = stronger signal-on switching upon ATP binding; sequences stand for … in TCGTCGGCAGCGTCAGATGTGTATAAGAGACAGTTTTTTTTTTTTTTTTTTTTTTTTT…TC
Details: aptamer strand: ATP DNA aptamer (quencher-CACCTGGGGGAGTATTGCGGAGGAAGG + anchor), 100 nM annealed; ATP concentration: 500 uM
Method in brief: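 The fluorescence ratio divides summed target-cycle Cy3 intensity by summed buffer-cycle Cy3 intensity for each cluster and is averaged per switch-domain sequence. Cy3-labelled switching-strand clusters on a modified Illumina MiSeq flow-cell were annealed to 100 nM quencher-labelled ATP aptamer, then imaged in selection buffer and again after 15 min with 500 uM ATP at 22 °C. Five such cycles were run, with NaOH stripping and re-annealing between them, and clusters outside 100-1000 RFU were excluded.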
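Note: ATP exposure 15 min at 22 °C before imaging.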

Sequence | switch fluorescence ratio
CGTGGGGATC | 1.06 ± 0.022
CGTGGGGGAG | 1.02 ± 0.066
CGTGGGGGCT | 1 ± 0.019
CGTGGGGGTG | 0.993 ± 0.029
CGTGGTGGGT | 0.963 ± 0.025
CGTGGTTAGT | 0.964 ± 0.023
CGTGGTTGAG | 0.976 ± 0.018
CGTGTAATGG | 1.042 ± 0.0015
CGTGTATATG | 1.01 ± 0.029
CGTGTATGGG | 1 ± 0.037
CGTGTCAGGG | 1 ± 0.034
CGTGTGGAAA | 1.02 ± 0.018
CGTGTTAACT | 0.992 ± 0.047
CGTGTTAGGG | 1.0062 ± 0.00077
CGTGTTGGAT | 0.997 ± 0.062
CGTGTTGGG | 1 ± 0.028
CGTGTTGGGT | 0.998 ± 0.048
CGTGTTGTAG | 1.02 ± 0.017
CGTGTTGTGG | 0.97 ± 0.067
CGTGTTTGTG | 0.999 ± 0.067
CGTGTTTTTC | 0.996 ± 0.026
CGTTAAGGGT | 0.98 ± 0.031
CGTTAAGTGG | 0.973 ± 0.04
CGTTAATAGC | 1.14 ± 0.019
CGTTACGAGC | 1.04 ± 0.059

Sequence | switch fluorescence ratio
CGTTACGGGG | 0.9788 ± 0.0055
CGTTACGTGT | 1.026 ± 0.0042
CGTTAGATT | 0.967 ± 0.011
CGTTAGATTG | 0.998 ± 0.051
CGTTAGGGTA | 0.9911 ± 0.003
CGTTAGTAAG | 0.982 ± 0.033
CGTTATCGGA | 1 ± 0.041
CGTTATGCCT | 0.975 ± 0.061
CGTTATTGAA | 0.9834 ± 0.0067
CGTTCAAGTT | 1 ± 0.024
CGTTCAATGG | 1.23 ± 0.05
CGTTCCCGTG | 0.9811 ± 0.0031
CGTTCGACTG | 0.97 ± 0.025
CGTTCTTCGC | 1.07 ± 0.094
CGTTGAGGTT | 0.979 ± 0.026
CGTTGCAGT | 0.986 ± 0.011
CGTTGCGGGG | 0.9751 ± 0.0073
CGTTGCTCCC | 1.3 ± 0.49
CGTTGCTTGG | 1 ± 0.046
CGTTGGGGAG | 1.02 ± 0.03
CGTTGGGGT | 0.986 ± 0.019
CGTTGGGGTT | 1.02 ± 0.036
CGTTGGGTCT | 1 ± 0.018
CGTTGGTCGC | 1.01 ± 0.016
CGTTGTATCT | 1 ± 0.035

Sequence | switch fluorescence ratio
CGTTGTGGGA | 1.01 ± 0.038
CGTTTAACGT | 0.989 ± 0.047
CGTTTAATAA | 1.008 ± 0.0091
CGTTTACCGA | 0.942 ± 0.034
CGTTTACCTG | 0.983 ± 0.0042
CGTTTAGGGA | 1.004 ± 0.0026
CGTTTAGTCA | 1.01 ± 0.023
CGTTTATGAG | 1.022 ± 0.0067
CGTTTATGGT | 0.967 ± 0.022
CGTTTATGTA | 0.995 ± 0.04
CGTTTATTCA | 1.036 ± 0.0079
CGTTTCACTA | 0.9736 ± 0.0019
CGTTTCAGAT | 1.02 ± 0.02
CGTTTCATGC | 1.05 ± 0.056
CGTTTCGAAT | 0.96 ± 0.027
CGTTTCTTTG | 0.966 ± 0.019
CGTTTGGAGC | 0.968 ± 0.031
CGTTTGGCAG | 1.019 ± 0.0025
CGTTTGGCTT | 1.01 ± 0.008
CGTTTGGTGT | 1.0115 ± 1.5e-05
CGTTTGTCAG | 0.965 ± 0.033
CGTTTGTTCC | 1.0348 ± 0.00023
CGTTTTACCG | 1.02 ± 0.032
CGTTTTCTGT | 0.978 ± 0.024
CGTTTTTAGA | 0.967 ± 0.031

Sequence | switch fluorescence ratio
CTAAATATAT | 1.03 ± 0.013
CTAAATATTA | 1.031 ± 0.0049
CTAACGGGCT | 0.995 ± 0.058
CTAACGTATA | 1.18 ± 0.036
CTAACTGCAT | 1.18 ± 0.031
CTAACTTATT | 1.01 ± 0.013
CTAAGAAGCG | 1.1 ± 0.17
CTAAGAATAG | 1.02 ± 0.021
CTAAGGGGCT | 1.01 ± 0.015
CTAAGGGGGT | 0.9503 ± 0.0032
CTAAGGTTGG | 0.974 ± 0.034
CTAATAGTT | 1 ± 0.048
CTAATATCTC | 1.016 ± 0.01
CTAATCATAA | 1 ± 0.052
CTAATCTAGC | 1.045 ± 0.0017
CTAATGGACC | 1.01 ± 0.03
CTAATGGCTT | 0.977 ± 0.033
CTAATGGGAG | 0.9726 ± 0.0092
CTAATGGGTT | 0.98 ± 0.037
CTAATGTTGT | 1.02 ± 0.028
CTAATTCGAG | 0.9919 ± 0.0026
CTAATTGTAG | 0.9884 ± 0.0029
CTACAATGGA | 1 ± 0.029
CTACATACGG | 1.52 ± 0.02
CTACATGACT | 1.13 ± 0.025

Sequence | switch fluorescence ratio
CTACATGTAA | 1.03 ± 0.081
CTACCCTTTG | 1.13 ± 0.038
CTACCGCCTA | 1.39 ± 0.048
CTACGGGATT | 1.33 ± 0.43
CTACTCCGTT | 1.29 ± 0.068
CTACTGAAGG | 0.983 ± 0.014
CTACTTATTT | 1.02 ± 0.024
CTACTTGATA | 0.978 ± 0.017
CTAGATTTGA | 1 ± 0.024
CTAGCATCCG | 1.03 ± 0.016
CTAGGAGGGA | 0.98 ± 0.013
CTAGGATGTG | 0.997 ± 0.031
CTAGGATTGA | 0.992 ± 0.041
CTAGGCTTTT | 1.02 ± 0.079
CTAGGGAGAG | 0.9912 ± 0.0069
CTAGGGGATT | 1.02 ± 0.011
CTAGGGGCTG | 0.946 ± 0.025
CTAGGGGGTA | 0.971 ± 0.035
CTAGGGGGTG | 1.03 ± 0.062
CTAGGGGTTC | 1.01 ± 0.046
CTAGGGTTAT | 1.006 ± 0.0025
CTAGGTGTGG | 1.04 ± 0.057
CTAGTAGAAG | 1.01 ± 0.016
CTAGTATGTT | 0.979 ± 0.02
CTAGTCAAGA | 1.027 ± 0.0066

Sequence | switch fluorescence ratio
CTAGTCAGGT | 1.018 ± 0.0012
CTAGTCTTTT | 0.982 ± 0.031
CTAGTTAGGC | 0.9844 ± 0.0091
CTAGTTTGGA | 1 ± 0.011
CTATAACGGG | 0.981 ± 0.0067
CTATAAGTCT | 1.022 ± 0.0033
CTATAATGTT | 0.9949 ± 0.0059
CTATACGGGG | 0.976 ± 0.025
CTATAGGAGA | 1.01 ± 0.044
CTATATAAAT | 0.997 ± 0.059
CTATATAGGT | 1.014 ± 0.0069
CTATCCGGAC | 1.25 ± 0.014
CTATCCTATA | 0.988 ± 0.022
CTATCGGGTA | 0.9966 ± 0.0097
CTATCTGTAG | 0.994 ± 0.03
CTATGCAATT | 3.33 ± 0.29
CTATGCGTTT | 0.989 ± 0.025
CTATGGATAC | 1.61 ± 0.18
CTATGGGGGT | 0.997 ± 0.024
CTATGGGTCC | 1.02 ± 0.026
CTATGTATGT | 1.01 ± 0.022
CTATGTATTT | 1.002 ± 0.0011
CTATGTGATT | 1.025 ± 0.0017
CTATTGAAGT | 0.9838 ± 0.0073
CTATTGGTTT | 0.9746 ± 0.0021

Sequence | switch fluorescence ratio
CTATTGTGGA | 0.999 ± 0.019
CTATTTTGGT | 0.9784 ± 0.0079
CTCAAAAACA | 1.02 ± 0.028
CTCAAGGGGC | 1.14 ± 0.11
CTCAATACTT | 1.786 ± 0.0034
CTCACCATGA | 1.03 ± 0.035
CTCACTTGGG | 1.024 ± 0.0012
CTCAGAATAG | 1.37 ± 0.075
CTCAGAATAT | 1.046 ± 0.0086
CTCAGAGTTT | 1 ± 0.012
CTCAGGAGGG | 0.997 ± 0.047
CTCAGGCAAT | 2.61 ± 0.45
CTCAGGGGGT | 0.9759 ± 0.007
CTCAGTAGTT | 1.018 ± 0.0053
CTCAGTTTCT | 1.02 ± 0.03
CTCATAACAG | 0.996 ± 0.015
CTCATAATTT | 0.993 ± 0.037
CTCATATAGA | 0.991 ± 0.045
CTCATCGGTC | 1.02 ± 0.035
CTCATCGTTC | 0.99555 ± 0.00034
CTCCAAAGCG | 1.19 ± 0.032
CTCCATCGGG | 1.31 ± 0.033
CTCCCTTCGA | 1.17 ± 0.036
CTCCGATGAT | 3.03 ± 0.62
CTCCGTGGGA | 1.9 ± 0.68

Sequence | switch fluorescence ratio
CTCCTACAGC | 1.32 ± 0.2
CTCCTAGTTT | 1.03 ± 0.02
CTCCTCTACC | 1.64 ± 0.048
CTCCTTTTAT | 1.03 ± 0.029
CTCGAAAAAA | 1.05 ± 0.014
CTCGAAGCG | 1.04 ± 0.034
CTCGACGGGG | 0.975 ± 0.035
CTCGATTTAT | 0.9951 ± 0.0086
CTCGCCGCGG | 1.08 ± 0.038
CTCGCCGGGG | 1.06 ± 0.013
CTCGCTGCGT | 1.024 ± 0.0082
CTCGGCGCTT | 1.05 ± 0.02
CTCGGCGGAG | 1.026 ± 0.0082
CTCGGCTGGT | 1.01 ± 0.019
CTCGGGGGAT | 1.05 ± 0.1
CTCGGGGTGT | 1.02 ± 0.018
CTCGGGTATG | 0.9791 ± 0.0043
CTCGGTTCTT | 0.975 ± 0.019
CTCGTAATCT | 1.571 ± 0.007
CTCGTAGGGA | 1.01 ± 0.027
CTCGTTGCTT | 1.03 ± 0.037
CTCGTTTTGA | 0.975 ± 0.023
CTCTACGCCG | 0.9875 ± 0.0053
CTCTATCAAT | 1.254 ± 0.0064
CTCTCAAATG | 1.03 ± 0.045
